Data taken from the supplement of paper PMC10126150.
± gives the standard deviation of the averaged measurements.

Tested on: ATP
Assay: switch fluorescence ratio, 500 uM ATP over buffer (Cy3 cluster intensity, sum of 5 cycles each) (fold (ratio)); higher = stronger signal-on switching upon ATP binding; sequences stand for … in TCGTCGGCAGCGTCAGATGTGTATAAGAGACAGTTTTTTTTTTTTTTTTTTTTTTTTT…TC
Settings: aptamer strand: ATP DNA aptamer (quencher-CACCTGGGGGAGTATTGCGGAGGAAGG + anchor), 100 nM annealed; ATP concentration: 500 uM
Method in brief: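 Exposure to 500 uM ATP lasted 15 min at 22 °C before imaging, and a selection-buffer image was taken beforehand, for Cy3-labelled switching-strand clusters on a modified Illumina MiSeq flow-cell annealed to 100 nM quencher-labelled ATP aptamer. Five buffer/ATP cycles were run with NaOH stripping and re-annealing between them. The fluorescence ratio per cluster is summed target-cycle over summed buffer-cycle Cy3 intensity, averaged per switch-domain sequence. Clusters outside 100-1000 RFU were excluded.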

| Sequence | switch fluorescence ratio |
| --- | --- |
| GGGAGTATCT | 0.9998 ± 0.0028 |
| GGGAGTATGT | 0.977 ± 0.054 |
| GGGAGTGGGA | 1.01 ± 0.011 |
| GGGAGTGTGC | 1.016 ± 0.0053 |
| GGGAGTTCTA | 0.991 ± 0.023 |
| GGGATAAAGT | 0.988 ± 0.022 |
| GGGATAAATA | 0.9996 ± 0.0023 |
| GGGATAAGCT | 1.02 ± 0.022 |
| GGGATACAGC | 1.03 ± 0.059 |
| GGGATACGGT | 1.0248 ± 0.00074 |
| GGGATAGACT | 0.995 ± 0.035 |
| GGGATAGCAC | 1.09 ± 0.13 |
| GGGATAGGAG | 1 ± 0.03 |
| GGGATATAGG | 0.9937 ± 0.0021 |
| GGGATATGGT | 0.986 ± 0.019 |
| GGGATATTGG | 0.992 ± 0.013 |
| GGGATCAGAA | 0.999 ± 0.074 |
| GGGATCAGCG | 0.988 ± 0.041 |
| GGGATCGGTG | 0.995 ± 0.016 |
| GGGATCTGCG | 0.95 ± 0.017 |
| GGGATGAGGG | 0.97 ± 0.037 |
| GGGATGGACC | 1 ± 0.018 |
| GGGATGTTTG | 0.987 ± 0.017 |

| Sequence | switch fluorescence ratio |
| --- | --- |
| GGGATTAGCG | 0.957 ± 0.037 |
| GGGATTAGGA | 0.995 ± 0.052 |
| GGGATTAGGG | 1.02 ± 0.043 |
| GGGATTATTC | 0.9725 ± 0.0041 |
| GGGATTGGAG | 0.995 ± 0.016 |
| GGGATTGGCT | 1.01 ± 0.015 |
| GGGATTGGGC | 0.992 ± 0.022 |
| GGGATTGGGG | 1 ± 0.012 |
| GGGATTGGTT | 0.999 ± 0.047 |
| GGGATTGTAA | 0.982 ± 0.021 |
| GGGATTTCTG | 1.03 ± 0.04 |
| GGGATTTGCA | 0.9758 ± 0.0075 |
| GGGATTTTAA | 0.9753 ± 0.0091 |
| GGGCAAATTC | 1.08 ± 0.02 |
| GGGCAAATTG | 0.968 ± 0.028 |
| GGGCAACTGG | 1.11 ± 0.15 |
| GGGCAAGTTA | 1.009 ± 0.007 |
| GGGCAATGTC | 1.39 ± 0.072 |
| GGGCACTTTG | 1.0204 ± 0.00091 |
| GGGCAGACCA | 1.01 ± 0.011 |
| GGGCAGCCCG | 0.98 ± 0.014 |
| GGGCAGGATG | 1.05 ± 0.039 |
| GGGCAGGGGC | 1 ± 0.025 |

| Sequence | switch fluorescence ratio |
| --- | --- |
| GGGCAGGGGT | 1.45 ± 0.84 |
| GGGCAGGGTA | 0.9883 ± 0.0076 |
| GGGCAGGGTT | 0.999 ± 0.03 |
| GGGCATAACT | 1.04 ± 0.044 |
| GGGCATAATG | 1.02 ± 0.041 |
| GGGCATAGTT | 0.97 ± 0.018 |
| GGGCATCATG | 1.04 ± 0.011 |
| GGGCATCTAG | 0.9863 ± 0.0013 |
| GGGCATGAAA | 1.02 ± 0.021 |
| GGGCATGTCG | 1.13 ± 0.013 |
| GGGCATTGGG | 0.996 ± 0.043 |
| GGGCCAAGGG | 1.01 ± 0.022 |
| GGGCCACCGA | 0.975 ± 0.0041 |
| GGGCCACGTA | 0.971 ± 0.082 |
| GGGCCAGCTT | 0.988 ± 0.016 |
| GGGCCAGGGG | 1.21 ± 0.067 |
| GGGCCAGGGT | 1.02 ± 0.0054 |
| GGGCCATGGA | 1.05 ± 0.099 |
| GGGCCCGATT | 0.976 ± 0.037 |
| GGGCCCGGCG | 0.973 ± 0.049 |
| GGGCCCTGTT | 1.03 ± 0.021 |
| GGGCCGGGAC | 0.961 ± 0.01 |
| GGGCCTAGGA | 1.028 ± 0.0069 |

| Sequence | switch fluorescence ratio |
| --- | --- |
| GGGCCTGCGC | 1 ± 0.015 |
| GGGCCTGCTT | 0.97 ± 0.052 |
| GGGCCTGGGT | 1 ± 0.017 |
| GGGCCTGGTC | 1.02 ± 0.032 |
| GGGCCTTTAG | 1.02 ± 0.033 |
| GGGCGAAAAA | 0.987 ± 0.054 |
| GGGCGAATGG | 1.02 ± 0.029 |
| GGGCGCACGG | 0.992 ± 0.039 |
| GGGCGCCAGG | 1.33 ± 0.66 |
| GGGCGCGGGG | 1.01 ± 0.023 |
| GGGCGGAGGG | 0.998 ± 0.027 |
| GGGCGGCCGT | 1.02 ± 0.044 |
| GGGCGGGGAT | 1.01 ± 0.018 |
| GGGCGGGGCT | 0.994 ± 0.016 |
| GGGCGGGGGC | 1.02 ± 0.056 |
| GGGCGTAACT | 0.991 ± 0.041 |
| GGGCGTGGTG | 1.03 ± 0.011 |
| GGGCGTGTTG | 1.027 ± 0.01 |
| GGGCTAGTCG | 1.01 ± 0.034 |
| GGGCTATTTG | 0.978 ± 0.013 |
| GGGCTATTTT | 0.991 ± 0.031 |
| GGGCTCAACT | 0.9946 ± 0.0053 |
| GGGCTCTATC | 0.9913 ± 0.0025 |

| Sequence | switch fluorescence ratio |
| --- | --- |
| GGGCTCTGAC | 1.049 ± 0.0084 |
| GGGCTCTTGC | 0.98 ± 0.068 |
| GGGCTGATCT | 1.04 ± 0.045 |
| GGGCTGCATT | 1.01 ± 0.011 |
| GGGCTGGAAT | 1 ± 0.02 |
| GGGCTTGCAG | 0.9812 ± 0.0089 |
| GGGCTTGGGT | 1.08 ± 0.12 |
| GGGCTTGGTA | 1 ± 0.014 |
| GGGCTTGTGC | 0.987 ± 0.071 |
| GGGCTTTAAA | 1.01 ± 0.012 |
| GGGGAAACCT | 2.21 ± 0.77 |
| GGGGAAAGCA | 1 ± 0.015 |
| GGGGAAAGGG | 1 ± 0.034 |
| GGGGAAAGGT | 0.989 ± 0.029 |
| GGGGAACAGG | 1.05 ± 0.06 |
| GGGGAACCAT | 1.01 ± 0.039 |
| GGGGAACGGG | 1 ± 0.027 |
| GGGGAAGACG | 1.01 ± 0.082 |
| GGGGAAGCGA | 1.09 ± 0.038 |
| GGGGAAGCTT | 1.04 ± 0.055 |
| GGGGAAGTCT | 0.984 ± 0.093 |
| GGGGAAGTGG | 1 ± 0.026 |
| GGGGAATACG | 1.11 ± 0.048 |

| Sequence | switch fluorescence ratio |
| --- | --- |
| GGGGAATAGG | 0.9962 ± 0.0084 |
| GGGGAATCTA | 0.997 ± 0.022 |
| GGGGAATGAT | 0.98 ± 0.021 |
| GGGGACGAGT | 0.99779 ± 0.00098 |
| GGGGACGGCA | 1.01 ± 0.046 |
| GGGGACGGTG | 1.03 ± 0.048 |
| GGGGACTGAG | 0.983 ± 0.029 |
| GGGGACTTTC | 1.03 ± 0.017 |
| GGGGAGAAAG | 0.9964 ± 0.0029 |
| GGGGAGAGCG | 1.01 ± 0.034 |
| GGGGAGAGGA | 0.987 ± 0.037 |
| GGGGAGAGGG | 0.984 ± 0.029 |
| GGGGAGCGCG | 0.981 ± 0.035 |
| GGGGAGCGGG | 0.99834 ± 0.00014 |
| GGGGAGCGTC | 1.01 ± 0.032 |
| GGGGAGGCCA | 0.963 ± 0.031 |
| GGGGAGGCTG | 0.971 ± 0.039 |
| GGGGAGGGGT | 1.01 ± 0.054 |
| GGGGAGTGCG | 0.969 ± 0.01 |
| GGGGAGTGG | 1.01 ± 0.025 |
| GGGGATAACG | 0.981 ± 0.012 |
| GGGGATAATT | 1.05 ± 0.025 |
| GGGGATATGG | 1.01 ± 0.039 |

| Sequence | switch fluorescence ratio |
| --- | --- |
| GGGGATGAAG | 0.994 ± 0.014 |
| GGGGATGGGG | 1.02 ± 0.044 |
| GGGGATTTGC | 0.969 ± 0.023 |
| GGGGCACGGG | 1.02 ± 0.034 |
| GGGGCAGCGT | 0.999 ± 0.043 |
| GGGGCAGGAG | 1.01 ± 0.06 |
| GGGGCAGGTT | 0.977 ± 0.038 |
| GGGGCATTGG | 0.99 ± 0.011 |
| GGGGCCATGG | 0.9123 ± 0.006 |
| GGGGCCCACG | 1.002 ± 0.006 |
| GGGGCCCCGT | 1.016 ± 0.0043 |
| GGGGCCCGGC | 0.904 ± 0.013 |
| GGGGCCGTAA | 0.992 ± 0.025 |
| GGGGCCTTTA | 0.9592 ± 0.0049 |
| GGGGCGAAGG | 0.999 ± 0.038 |
| GGGGCGACGT | 0.977 ± 0.023 |
| GGGGCGAGG | 0.994 ± 0.053 |
| GGGGCGGGGC | 1.01 ± 0.014 |
| GGGGCGTATC | 1.01 ± 0.04 |
